Measured values as given in article PMC4822050.

What was measured:
[1] = molecular target: T1, SRA-Spacer-661 (human, UniProt Q96T88 414-661); assay: FP; ITC: 10 mM HEPES pH 8.0, 100 mM NaCl, 18 C; EMSA: 20 mM HEPES pH 7.5, 100 mM NaCl, 8% glycerol, 1 mM DTT, on ice; pull-down: 20 mM HEPES-NaOH pH 8.0, 100 mM NaC
T1 sequence: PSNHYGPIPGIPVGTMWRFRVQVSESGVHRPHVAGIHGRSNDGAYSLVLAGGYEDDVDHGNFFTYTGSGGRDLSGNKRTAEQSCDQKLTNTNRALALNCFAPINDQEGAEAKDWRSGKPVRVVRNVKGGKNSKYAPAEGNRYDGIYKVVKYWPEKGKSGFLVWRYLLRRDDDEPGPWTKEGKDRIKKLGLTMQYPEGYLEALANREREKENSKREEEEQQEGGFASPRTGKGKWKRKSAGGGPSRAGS

[2] = molecular target: T2, UHRF1 delta627-674 (human, UniProt Q96T88 1-793, del627-674); assay: as above
T2 sequence: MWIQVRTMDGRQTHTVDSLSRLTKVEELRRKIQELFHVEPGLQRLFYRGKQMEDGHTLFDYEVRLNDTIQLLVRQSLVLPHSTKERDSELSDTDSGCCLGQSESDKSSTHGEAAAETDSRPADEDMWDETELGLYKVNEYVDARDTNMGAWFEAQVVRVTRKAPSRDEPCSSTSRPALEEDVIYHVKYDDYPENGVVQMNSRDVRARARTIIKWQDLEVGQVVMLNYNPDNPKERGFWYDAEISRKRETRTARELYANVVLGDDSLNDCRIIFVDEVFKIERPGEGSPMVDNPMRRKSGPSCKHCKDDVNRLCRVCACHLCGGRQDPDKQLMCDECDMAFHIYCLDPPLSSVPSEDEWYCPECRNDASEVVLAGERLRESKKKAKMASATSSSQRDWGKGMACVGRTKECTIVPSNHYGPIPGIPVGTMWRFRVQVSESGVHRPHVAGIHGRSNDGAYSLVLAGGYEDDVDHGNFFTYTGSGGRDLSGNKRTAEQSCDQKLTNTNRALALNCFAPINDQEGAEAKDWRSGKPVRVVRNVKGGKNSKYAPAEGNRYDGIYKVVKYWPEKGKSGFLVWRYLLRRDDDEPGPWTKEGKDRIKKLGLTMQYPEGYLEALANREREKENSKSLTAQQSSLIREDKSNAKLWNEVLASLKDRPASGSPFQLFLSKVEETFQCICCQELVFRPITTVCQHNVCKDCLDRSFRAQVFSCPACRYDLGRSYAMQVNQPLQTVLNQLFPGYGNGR

[3] = molecular target: T3, SRA-Spacer (human, UniProt Q96T88 414-674); assay: FP; 50 mM NaCl; ITC: 10 mM HEPES pH 8.0, 100 mM NaCl, 18 C; EMSA: 20 mM HEPES pH 7.5, 100 mM NaCl, 8% glycerol, 1 mM DTT, on ice; pull-down: 20 mM HEPES-NaOH pH 8.0, 100 mM NaC
T3 sequence: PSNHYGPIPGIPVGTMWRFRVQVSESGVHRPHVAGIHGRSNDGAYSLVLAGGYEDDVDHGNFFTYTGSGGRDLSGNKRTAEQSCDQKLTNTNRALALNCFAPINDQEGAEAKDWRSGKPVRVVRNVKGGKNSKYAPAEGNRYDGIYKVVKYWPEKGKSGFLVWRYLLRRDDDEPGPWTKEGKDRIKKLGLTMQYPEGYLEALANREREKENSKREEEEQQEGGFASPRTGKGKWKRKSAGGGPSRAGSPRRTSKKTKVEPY

[4] = molecular target: T4, SRA (human, UniProt Q96T88 414-617); assay: as above
T4 sequence: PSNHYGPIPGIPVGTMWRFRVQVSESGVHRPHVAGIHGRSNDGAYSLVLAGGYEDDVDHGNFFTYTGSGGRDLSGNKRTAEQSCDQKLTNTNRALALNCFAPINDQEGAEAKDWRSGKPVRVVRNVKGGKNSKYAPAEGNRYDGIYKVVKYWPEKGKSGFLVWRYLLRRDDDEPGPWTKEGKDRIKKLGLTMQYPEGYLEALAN

[5] = molecular target: T5, UHRF1 deltaSRA (human, UniProt Q96T88 1-793, del414-617); assay: FP; not detectable; ITC: 10 mM HEPES pH 8.0, 100 mM NaCl, 18 C; EMSA: 20 mM HEPES pH 7.5, 100 mM NaCl, 8% glycerol, 1 mM DTT, on ice; pull-down: 20 mM HEPES-NaOH pH 8.0, 100 mM NaC
T5 sequence: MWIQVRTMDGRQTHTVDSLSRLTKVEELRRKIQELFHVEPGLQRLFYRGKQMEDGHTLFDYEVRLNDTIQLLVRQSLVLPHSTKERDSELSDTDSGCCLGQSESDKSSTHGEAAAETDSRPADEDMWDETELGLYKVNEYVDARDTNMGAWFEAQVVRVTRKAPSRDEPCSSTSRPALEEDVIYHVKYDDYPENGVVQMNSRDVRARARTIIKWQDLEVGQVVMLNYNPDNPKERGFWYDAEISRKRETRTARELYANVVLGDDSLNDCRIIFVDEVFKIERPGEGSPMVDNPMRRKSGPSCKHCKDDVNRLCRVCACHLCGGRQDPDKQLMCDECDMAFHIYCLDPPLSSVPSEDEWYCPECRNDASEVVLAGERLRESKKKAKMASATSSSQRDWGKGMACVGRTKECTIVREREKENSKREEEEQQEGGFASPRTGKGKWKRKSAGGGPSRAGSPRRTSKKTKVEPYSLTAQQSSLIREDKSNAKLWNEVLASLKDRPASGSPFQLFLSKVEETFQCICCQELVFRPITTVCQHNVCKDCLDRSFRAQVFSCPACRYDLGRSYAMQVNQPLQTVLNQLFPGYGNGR

B1: FAM-12bp-HM-DNA (dsDNA)
DNA 1: CCATGCGCTGAC
DNA 2: GTCAGCGCATGG
modifications: 5-methyl-dC at position 6 of strand 2 (GTCAGXGCATGG)
Kd [1]: 0.38 ± 0.06 µM
Kd [2]: 4.94 ± 1.09 µM
Kd [3]: 0.024 ± 0.0037 µM
Kd [4]: 0.15 ± 0.018 µM
binding result [5]: no binding
